A short description of the data set: yeast display, Sf9 membrane polyspecificity reagent, FACS + sequencing; frameworks hold sequencing errors. The procedure, abridged: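 Sorting gates, low and high (top ~1%), were placed on anti-HA fluorescence to track expression and on streptavidin fluorescence to track reagent binding. A clone's polyreactivity label is taken from the gate it came out of. The reagent was 10% biotinylated, detergent-solubilized Sf9 membrane, applied for 1 hour at 4 °C to galactose-induced yeast display cells.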
On to “QVQLVESGGGLVQAGGSLRLSCAASGLIFVINAMGCYRQAPGKERELVATISSGVSTNNADSVKGRFTISRDNAKNTVYLQMYSLKPEDTAVYYCNKGQTVSRGYRLYERFVYWGQGTQVTVSS”, for which the “polyreactivity (PSR sort gate)” value is “low polyreactivity”.
The same measure for “QVQLVESGGGLVQAGGSLRLSCAASGLIFVINAMGWYRQAPGTERELVATISSGVSTNYADSVKGRFTISRDNAKNTVYLQMNSLKPEDTAVYYCNKGQTVSRGYRLYERYVYWGQGTQVTVSS”: “low polyreactivity”; for “QVQLVESGGGLVQAGGSLRLSCAASGLIFVRYAMGWYRQAPGKERELVATITWSGGTTYADSVKGRFTISRDNGKNTVYLQMNSLKPEDTEVYDCAVEWPAWTDSDYPVGGHAFGYWGQVTQVTVSS”: “low polyreactivity”.
Regarding “QVQLVESGGGLVQAGGSLRLSCAASGLIFVVYAMGWYRQAPGKERELVAAISRSGGRTYYADSVKGRFTISRDNAKNTVYLQMNSLKPEDTAVYYCAARRYSTTFGRLFDYWGQGTQVTVSS”, the “polyreactivity (PSR sort gate)” value is on record as “high polyreactivity”.
The same measure for “QVQLVESGGGLVQAGGSLRLSCAASGLIFVVYTMGWYRQAPGKERELVAAITGRGGSTYADSVKGRFTISRDNAKNTVYLQMNSLKPEDNAVYYCNRADYYGYRFRVYDRLDYWGQGTQVTVSS”: “low polyreactivity”.
For “QVQLVESGGGLVQAGGSLRLSCAASGLIFWGYTMGWYRQAPGKERELVAAISRSGGRTYYADSVKGRFTISRDNAKNTVYLQMNSLKPEDTAVYYCAARYYYWGQGTQVTVSS” the value was “high polyreactivity”; for “QVQLVESGGGLVQAGGSLRLSCAASGLIFWLNAMGWYRQAPGKERELVAAISSSGGRTYYADSVKGRFTISRDNAKNTVYLQMNSLKPEDTAVYYCNRGQQGRGWWGYDYWGHGTQVTVSS”, “high polyreactivity”; for “QVQLVESGGGLVQAGGSLRLSCAASGLIFWYNAMGWYRQAPGKEREFVAAITSDGGRTYYADSVKGRFTISRDNAKNTVYLQMNSLKPEDTAVYYCTARGYGYLGRKGGYSYGYYYWGQGTQVTVSS”, “low polyreactivity”.
As for “QVQLVESGGGLVQAGGSLRLSCAASGLIFWYYAMGWYRQAPGKERELVATISWSGGSTYYADSVKGRFTISRDNAKNTVYLQMNSLKPEDTAVYYCAAVGFRAYVARGYWYYYWGQGTQVTVSS”, the “polyreactivity (PSR sort gate)” value is “high polyreactivity”.
The same measure for “QVQLVESGGGLVQAGGSLRLSCAASGLIFWYYTMGWYRQAPGKESELVAAITIGGSTYYADSVKGRFTISRDNAKNTVYLQMNSLKPEDTAVYYCNTRRGRSPGGRYEYDYWGQGTQVTVSS”: “low polyreactivity”; for “QVQLVESGGGLVQAGGSLRLSCAASGLIFYDNMGWYRPAPGKERELVAAISSSGGSTSYADSVKGRFTISRDNAKNTVYLQMNSLKPEDTAVYYCAARLVYEWRRLDYFIAWDYWGQGTQVTVSS”: “low polyreactivity”; for “QVQLVESGGGLVQAGGSLRLSCAASGLIFYDNMGWYRQAPGKERELLAAISSSGGSTSYADSVKGRFTISRDNAKITVSLQMNCLKPEDTGVYYCAADSYPAYLGFVGFDYWGQGTQVTVSS”: “low polyreactivity”.
For “QVQLVESGGGLVQAGGSLRLSCAASGLIFYDNMGWYRQAPGKERELVAAISSSGGSTSYADSVKGRFTISRDNAKNTVYLQMNSLKPEDTAVYYCAADSYPAYLGFVGFDYWGQGTQVNVSS” the value was “low polyreactivity”; for “QVQLVESGGGLVQAGGSLRLSCAASGLIFYGNAMGWYRQAPGKERELVADITGSSVRTYYADSVKGRFTISRDNAKNTDYLQMNSLKPEDTAVYYCAATYGYLYTGLSRYDYWGQGTQVTVSS”, “low polyreactivity”; for “QVQLVESGGGLVQAGGSLRLSCAASGLIFYGYAMGWYRQAPGKERELVAAISSGGSTNYADSVKGRFTISRDNAKNTVYLQMNSLKPEDTAVYYCAAKPIFYRTILYYYWGQGTQVTVSS”, “high polyreactivity”.
For “QVQLVESGGGLVQAGGSLRLSCAASGLIFYKYAKGWYRQAPGKERELVAAISRGDNTYYADSVKGRFTISRDNAKNTVYLQMNSLKPEDTAVYYCAAYRWIYQSQYQGYWLDYWGQGTQVTVSS” the value was “high polyreactivity”; for “QVQLVESGGGLVQAGGSLRLSCAASGLIFYKYAMGWYRQAPGKERELVAAIRWSGGSTYYADSVKGRFTISRDNAKNTVYLQMNSLKPEDTAVYYCAALSWNHQYEYWGQGTQVTVSS”, “high polyreactivity”; for “QVQLVESGGGLVQAGGSLRLSCAASGLIFYLYAMGWYRQQPGKERELVARMSRGGSTNYADSVKGRFTISRDNAKNTVYLQLNSLKPEDTAVDYCAADWFVSLGEMYYWGQGTQGTVSS”, “low polyreactivity”.
On to “QVQLVESGGGLVQAGGSLRLSCAASGLIFYPYAMGWYRQAPGKERELVAGISSSGDSTYYADSVKGRFTISRDNAKNTVYLEMNSLKPEDTAVYYCNADGWYFEYWGQGTHVTVSS”, for which the “polyreactivity (PSR sort gate)” value is on record as “low polyreactivity”.
For “QVQLVESGGGLVQAGGSLRLSCAASGLIFYRYAMGWYRQAPGKERELVAAISSGGSTYYADSVKGRFTISRDNAKNTVYLQMNSLKPEDTAVYYCADRTRVSPQIHIYRAYGYWGQGTQVTVSS” the value was “high polyreactivity”; for “QVQLVESGGGLVQAGGSLRLSCAASGLIFYRYAMGWYRQAPGKERELVAVISWIGCNTYYADSVKGRFTISRDNAKNTVYLQMNSLKPEDTAVYYCAVATGPVSYRRYYWGQGTQVTVSS”, “high polyreactivity”.
On to “QVQLVESGGGLVQAGGSLRLSCAASGLIFYSNAMGWYRQAPGKDRELVAAITTSGSSTYYADSVKGRFTISRDNAKNTVYIPMNSLKPEDTAVYYCATEWRSNYWGQGTQVTVSS”, for which the “polyreactivity (PSR sort gate)” value was “low polyreactivity”.
For “QVQLVESGGGLVQAGGSLRLSCAASGLIFYTYAMGWYRQAPGIERELVATISKRDGGTYYADSVKGRFTISRDNAKNTVYLQMNSLKPEDTAVYYCDAERSYSYWAYDYWGQGTQVTVSS”, the “polyreactivity (PSR sort gate)” value is on record as “high polyreactivity”.
In the case of “QVQLVESGGGLVQAGGSLRLSCAASGLIFYVYAMGWYRQAPGKERELVAAISFRGTSTYADSVKGRFTISRDNAKNTVYFQMNSLKPEDTAVYYCAVTGFDVLWPSLGGELDYWGQGTQVTVSS”, the “polyreactivity (PSR sort gate)” value is given as “low polyreactivity”.
For “QVQLVESGGGLVQAGGSLRLSCAASGLIFYYNAMGWYRQAPGKERELVAAISSDGTTDYADSVKGRFTISRDNAKNTVYLQMNSLKPEDTAVYYCNADKAVKLSGYGRADYDYWGQGTQVTVSS” the value was “low polyreactivity”.
For “QVQLVESGGGLVQAGGSLRLSCAASGLIFYYYAMGWYRQAPGKERELVAAITGSGGSTYYADSVKGRFTISRDNAKNTVYLQMNSLKPEDTAVYYCAADGIYTYEYWGQGTQVTVSS” the value was “low polyreactivity”; for “QVQLVESGGGLVQAGGSLRLSCAASGLIFYYYAMGWYRQAPGKERELVAAITTGGGTYYADSVKGRFTISRDNAKNTVYLQMNILKPEATAVFYCAVYYRSYWGYEYWGQGTQVTVSS”, “high polyreactivity”; for “QVQLVESGGGLVQAGGSLRLSCAASGLIIKWYAMGWYRQAPGKERELVAAITRTGGSTYYADSVKGRFTISRDNAKNTVYLQMNSLKPEDTAVYYCADRPVYFRYIAYYDWTPSFDFWGQGTQVTVSS”, “low polyreactivity”.
On to “QVQLVESGGGLVQAGGSLRLSCAASGLILANYAMGWYRQAPGKDRELVAAISSSGGSTYYADSVKGRFTISRDNAKNTVYLQMNSLKPEDTAVYYCAAYPLYRRRWTGDYWGQGTQVTVSS”, for which the “polyreactivity (PSR sort gate)” value was “high polyreactivity”.
The same measure for “QVQLVESGGGLVQAGGSLRLSCAASGLILGYYAMGWYRQAPGKERELVATIRRGASTYYADSVKGRFTISRDNAKNTVYLQMNSLKPEDTAVYYCAADTERSLAGGMYYWGEGTQVTVSS”: “low polyreactivity”.

Values taken from the nanobody polyreactivity screen of Harvey et al. (2022).
